Reference: patent US20120277144

Target: cdc42, P60953
Sequence (P60953 1-188): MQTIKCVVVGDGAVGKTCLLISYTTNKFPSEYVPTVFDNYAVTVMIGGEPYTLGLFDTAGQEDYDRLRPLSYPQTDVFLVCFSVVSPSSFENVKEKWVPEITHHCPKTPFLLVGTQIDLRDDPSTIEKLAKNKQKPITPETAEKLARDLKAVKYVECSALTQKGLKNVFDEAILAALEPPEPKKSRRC

B1: FYVE, RhoGEF and PH domain-containing 5 (FGD5) (protein)
chain: MFRGPKPPIAPKPRLTAPNEWRASVYLNDSLNKCSNGRLPCVDRGLDEGPRSIPKCSESETDEDYIVVPRVPLREDEPKDEGSVGNKALVSPESSAEEEEEREEGGEACGLEGTGAGEDSVAPAAPGAGALSREGEEGTDLALEDEGEGCADEPGTLEQVSRSEEEEKLVQPHRECSLEDSGPWAGEGVFQSDLLLPHIHGEDQEPPDTPGEAEEDDEEGCASTDPAGADEGSGPDRPTEDMGQDAEDTSEEPPEKEELAGVQEAETATDCPEVLEEGCEEATGVTGGEQVDLSEPPDHEKKTNQEVAAATLEDHAQDESAEESCQIVPFENDCMEDFVTSLTGSPYEFFPTESTSFCSESCSPLSESAKGLESEQAPKLGLRAEENPMVGALCGQCGSLQGGAAEGPAAPDVVVVLEEEALDDALANPYVMGVGLPGQAAPGEGGQAASDALGGYGSKEELNCEAEGGLVPADRKNTSTRVRPHSGKVAGYVPETVPEETGPEAGSSAPGIGGAAEEVGKTLLSLEGKPLEASRALPAKPRAFTLYPRSFSVEGREIPVSVYQEPEGSGLDDHRIKRKEDNLSLSCVIGSSGSFSQRNHLPSSGTSTPSSMVDIPPPFDLACITKKPITKSSPSLLIESDSPDKYKKKKSSFKRFLALTFKKKTENKLHVDVNVSSSRSSSESSYHGPSRILEVDRRSLSNSPQLKSRTGKLRASESPSSLIFYRDGKRKGVPFSRTVSRVESFEDRSRPPFLPLPLTKPRSISFPSADTSDYENIPAMNSDYENIQIPPRRPARAGAFTKLFEDQSRALSTANENDGYVDMSSFNAFESKQQSADQDAESAYTEPYKVCPISSAAPKEDLTSDEEQRSSEEEDSASRDPSVTHKVEGQSRALVIAQELLSSEKAYVEMLQHLNLDFHGAVMRALDDMDHEGRDTLAREELRQGLSELPAIHDLHQGILEELEERLSNWESQQKVADVFLAREQGFDHHATHILQFDRYLGLLSENCLHSPRLAAAVREFEQSVQGGSQTAKHRLLRVVQRLFQYQVLLTDYLNNLCPDSAEYDNTQGALSLISKVTDRANDSMEQGENLQKLVHIEHSVRGQGDLLQPGREFLKEGTLMKVTGKNRRPRHLFLMNDVLLYTYPQKDGKYRLKNTLAVANMKVSRPVMEKVPYALKIETSESCLMLSASSCAERDEWYGCLSRALPEDYKAQALAAFHHSVEIRERLGVSLGERPPTLVPVTHVMMCMNCGCDFSLTLRRHHCHACGKIVCRNCSRNKYPLKYLKDRMAKVCDGCFGELKKRGRAVPGLMRERPVSMSFPLSSPRFSGSAFSSVFQSINPSTFKKQKKVPSALTEVAASGEGSAISGYLSRCKRGKRHWKKLWFVIKGKVLYTYMASEDKVALESMPLLGFTIAPEKEEGSSEVGPIFHLYHKKTLFYSFKAEDTNSAQRWIEAMEDASVL
GTP-cdc42 level in a GEF-activity assay (G-lisa, chemo-luminescent measurement of GTP-bound small G-proteins in lysates of Sham Ad or Ad-FGD5 transfected HUVECs): cdc42-FGD5 binding led to specific activation of cdc42 in a GEF-activity assay
